Source: article PMC11297037 (Nature Communications, 2024)

Molecular target: the molecule itself
Experiment: cryo-EM structure

B1: human neutral amino acid transporter ASCT2 (natural protein)
chain: MVADPPRDSKGLAAAEPTANGGLALASIEDQGAAAGGYCGSRDQVRRCLRANLLVLLTVVAVVAGVALGLGVSGAGGALALGPERLSAFVFPGELLLRLLRMIILPLVVCSLIGGAASLDPGALGRLGAWALLFFLVTTLLASALGVGLALALQPGAASAAINASVGAAGSAENAPSKEVLDSFLDLARNIFPSNLVSAAFRSYSTTYEERNITGTRVKVPVGQEVEGMNILGLVVFAIVFGVALRKLGPEGELLIRFFNSFNEATMVLVSWIMWYAPVGIMFLVAGKIVEMEDVGLLFARLGKYILCCLLGHAIHGLLVLPLIYFLFTRKNPYRFLWGIVTPLATAFGTSSSSATLPLMMKCVEENNGVAKHISRFILPIGATVNMDGAALFQCVAAVFIAQLSQQSLDFVKIITILVTATASSVGAAGIPAGGVLTLAIILEAVNLPVDHISLILAVDWLVDRSCTVLNVEGDALGAGLLQNYVDRTESRSTEPELIQVKSELPLDPLPVPTEEGNPLLKHYRGPAGDATVASEKESVM
  stoichiometry N: 3
